In patent publication US20240279288A1, “APPLICATION OF PLANT JAZ PROTEINS AND DERIVED POLYPEPTIDES IN PREVENTION AND TREATMENT OF HUMAN AND ANIMAL TUMORS” (ANYANG INSTITUTE OF SINO-COTTON INDUSTRY INNOVATION, priority 2021, published 2024):

Legend:
GhTPL = assay: Yeast two hybrid with GhTPL; assay type: binding, cotton
Procedure: (§1) The study on Arabidopsis had shown that the inhibition of JAZ protein on JA signaling was mainly achieved by inhibiting the transcription factor function of MYC, which had been experimentally verified by us in cotton. Based on the phylogenetic tree of Arabidopsis and cotton JAZs, we screened 6 cotton JAZs (GhJAZ1, GhJAZ7, GhJAZ9, GhJAZ10, GhJAZ11 and GhJAZ31), which were analyzed with GhMYC2, GhNINJA, GhTPL, GhHDA6, and GhCOI1 for yeast two hybrid. The amino acid sequence of GhJAZ1 was set forth in SEQ ID No. 4, and the corresponding encoding gene sequence was set forth in SEQ ID No. 39; the amino acid sequence of GhJAZ7 was set forth in SEQ ID No. 7, and the corresponding encoding gene sequence was set forth in SEQ ID No. 42; the amino acid sequence of GhJAZ9 was set forth in SEQ ID No. 2, and the corresponding encoding gene sequence was set forth in SEQ ID No. 37; the amino acid sequence of GhJAZ10 was set forth in SEQ ID No. 3, and the corresponding encoding gene sequence was set forth in SEQ ID No. 38; the amino acid sequence of GhJAZ11 was set forth in SEQ ID No. 5, and the corresponding encoding gene sequence was set forth in SEQ ID No. 40; and the amino acid sequence of GhJAZ31 was set forth in SEQ ID No. 9, and the corresponding encoding gene sequence was set forth in SEQ ID No. 44. The amino acid sequence of GhMYC2 was set forth in SEQ ID No. 71, and the corresponding encoding gene sequence was set forth in SEQ ID No. 72; the amino acid sequence of GhNINJA was set forth in SEQ ID No. 73, and the corresponding encoding gene sequence was set forth in SEQ ID No. 74; the amino acid sequence of GhTPL was set forth in SEQ ID No. 75, and the corresponding encoding gene sequence was set forth in SEQ ID No. 76; the amino acid sequence of GhHDA6 was set forth in SEQ ID No. 77, and the corresponding encoding gene sequence was set forth in SEQ ID No. 78; and the amino acid sequence of GhCOI1 was set forth in SEQ ID No. 79, and the corresponding encoding gene sequence was set forth in SEQ ID No. 80. […]

GhHDA6 = assay: Yeast two hybrid with GhHDA6; assay type: binding, cotton
Sequence of GhHDA6 (as listed by the source): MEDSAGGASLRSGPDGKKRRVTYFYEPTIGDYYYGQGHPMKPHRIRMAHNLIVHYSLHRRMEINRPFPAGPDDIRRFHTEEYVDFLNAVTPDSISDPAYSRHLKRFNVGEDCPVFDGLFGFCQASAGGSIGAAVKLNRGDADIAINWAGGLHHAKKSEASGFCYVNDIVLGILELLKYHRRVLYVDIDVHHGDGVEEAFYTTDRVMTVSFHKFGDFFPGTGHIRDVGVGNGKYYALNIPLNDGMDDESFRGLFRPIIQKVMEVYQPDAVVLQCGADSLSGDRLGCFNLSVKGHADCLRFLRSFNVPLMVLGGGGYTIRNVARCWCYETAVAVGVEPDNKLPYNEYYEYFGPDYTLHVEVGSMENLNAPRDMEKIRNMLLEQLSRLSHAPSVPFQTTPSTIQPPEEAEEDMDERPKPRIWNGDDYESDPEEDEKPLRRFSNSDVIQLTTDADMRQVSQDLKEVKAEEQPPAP
Procedure: as §1, with “44.” for “44. The amino acid sequence of GhMYC2 was set forth in SEQ ID No. 71, and the corresponding encoding gene sequence was set forth in SEQ ID No. 72; the amino acid sequence of GhNINJA was set forth in SEQ ID No. 73, and the corresponding encoding gene sequence was set forth in SEQ ID No. 74; the amino acid sequence of GhTPL was set forth in SEQ ID No. 75, and the corresponding encoding gene sequence was set forth in SEQ ID No. 76; the amino acid sequence of GhHDA6 was set forth in SEQ ID No. 77, and the corresponding encoding gene sequence was set forth in SEQ ID No. 78; and the amino acid sequence of GhCOI1 was set forth in SEQ ID No. 79, and the corresponding encoding gene sequence was set forth in SEQ ID No. 80.”

[1] = test system: ovarian cancer cells SKOV3; assay: CCK8 cell viability detection, SKOV3; assay type: cell-based, human; details: CCK8, 24 h treatment; read-out: IC50, inhibition of SKOV3 cells
Procedure: CCK8 cell viability detection: cell suspension was seeded in 96-well plates at a concentration of 5×10^4 cells/ml (100 μL/well). The plates were placed in the incubator for pre-culture (at 37° C., 5% CO2), and control and protein agents were added to each well 24 h after seeding. The plates were then placed in the incubator for 24 h, followed by addition of 10 μL CCK8 solution into each well and incubation of the plates in the incubator for 0.5-2 h before the absorbance measurement at 450 nm using a microplate reader.
Analysis of effect of GhJAZ1 protein on the cell cycle and apoptosis of tumor cells

MCF7 breast cancer cells = assay: Apoptosis detection (Annexin V-FITC/PI), MCF7; assay type: cell-based, human; details: 0.691 μM, 24 h, vs PBS
Procedure: Apoptosis detection: cells were collected in 1.5 EP tubes and centrifuged at 300 g for 5 min, with the supernatant discarded, followed by collecting the cells, washing with PBS and resuspending. 1×10^5 resuspended cells were taken and centrifuged at 300 g for 5 min, with the supernatant discarded. The cells were washed with PBS, resuspended by adding 500 μl of diluted 1×Annexin V Binding Buffer working solution, and then a staining solution of 5 μL of Annexin V-FITC and 5 μL of propidium iodide (PI) were added and mixed well by vortex, followed by incubation at room temperature in the dark for 15-20 min, and detection on the instrument. Specifically, the Annexin V-FITC/PI fluorescent dual staining cell apoptosis detection kit (Wuhan Pricella Life Science & Technology Co., Ltd., Cat. No.: P-CA-201) was used.

GhMYC2 = assay: Luciferase experiment in tobacco leaves with GhMYC2; assay type: binding, cotton; details: no fluorescence on the control
Sequence of GhMYC2 (as listed by the source): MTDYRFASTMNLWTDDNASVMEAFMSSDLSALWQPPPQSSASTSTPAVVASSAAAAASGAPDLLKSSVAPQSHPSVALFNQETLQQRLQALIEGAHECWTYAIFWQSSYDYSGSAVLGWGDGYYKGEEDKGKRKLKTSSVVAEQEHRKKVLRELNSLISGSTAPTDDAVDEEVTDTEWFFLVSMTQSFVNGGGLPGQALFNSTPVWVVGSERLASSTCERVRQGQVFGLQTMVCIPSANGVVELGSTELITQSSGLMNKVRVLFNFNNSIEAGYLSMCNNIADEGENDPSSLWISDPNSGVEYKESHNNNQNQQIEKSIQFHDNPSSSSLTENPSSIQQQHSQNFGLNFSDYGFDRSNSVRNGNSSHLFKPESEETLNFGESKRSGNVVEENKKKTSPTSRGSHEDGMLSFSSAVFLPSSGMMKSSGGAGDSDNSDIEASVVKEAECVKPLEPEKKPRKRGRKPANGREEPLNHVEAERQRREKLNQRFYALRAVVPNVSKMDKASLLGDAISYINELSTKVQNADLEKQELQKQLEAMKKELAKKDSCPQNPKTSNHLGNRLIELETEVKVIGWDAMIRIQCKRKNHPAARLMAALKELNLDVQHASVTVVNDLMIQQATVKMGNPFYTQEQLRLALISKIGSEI
From the text: Method of the luciferase experiment: GhJAZ1 (corresponding encoding gene sequence set forth in SEQ ID No. 39) was subcloned into pCAMBIA-CLuc vector (Chen, H., et al. “Firefly Luciferase Complementation Imaging Assay for Protein-Protein Interactions in Plants.” Plant Physiology 146.2(2008):368-376.) between KpnI and SalI cleavage sites, and the transcription factors such as GhMYC2 (corresponding encoding gene sequence set forth in SEQ ID No. 72), GhNINJA (corresponding encoding gene sequence set forth in SEQ ID No. 74), and GhCOI1 (corresponding encoding gene sequence set forth in SEQ ID No. 80) were subcloned into pCAMBIA-NLuc (Chen, H., et al. “Firefly Luciferase Complementation Imaging Assay for Protein-Protein Interactions in Plants.” Plant Physiology 146.2(2008):368-376.) between KpnI and SalI cleavage sites, respectively. […] Luciferase substrates were applied at the infected leaves before taking images and placed in a dark room for at least 6 min to quench fluorescence, followed by observation on the Nightowl-II LB983 instrument, using IndigoBasic software under the luciferase-5 min setting conditions.

Sequence of GhTPL (as listed by the source): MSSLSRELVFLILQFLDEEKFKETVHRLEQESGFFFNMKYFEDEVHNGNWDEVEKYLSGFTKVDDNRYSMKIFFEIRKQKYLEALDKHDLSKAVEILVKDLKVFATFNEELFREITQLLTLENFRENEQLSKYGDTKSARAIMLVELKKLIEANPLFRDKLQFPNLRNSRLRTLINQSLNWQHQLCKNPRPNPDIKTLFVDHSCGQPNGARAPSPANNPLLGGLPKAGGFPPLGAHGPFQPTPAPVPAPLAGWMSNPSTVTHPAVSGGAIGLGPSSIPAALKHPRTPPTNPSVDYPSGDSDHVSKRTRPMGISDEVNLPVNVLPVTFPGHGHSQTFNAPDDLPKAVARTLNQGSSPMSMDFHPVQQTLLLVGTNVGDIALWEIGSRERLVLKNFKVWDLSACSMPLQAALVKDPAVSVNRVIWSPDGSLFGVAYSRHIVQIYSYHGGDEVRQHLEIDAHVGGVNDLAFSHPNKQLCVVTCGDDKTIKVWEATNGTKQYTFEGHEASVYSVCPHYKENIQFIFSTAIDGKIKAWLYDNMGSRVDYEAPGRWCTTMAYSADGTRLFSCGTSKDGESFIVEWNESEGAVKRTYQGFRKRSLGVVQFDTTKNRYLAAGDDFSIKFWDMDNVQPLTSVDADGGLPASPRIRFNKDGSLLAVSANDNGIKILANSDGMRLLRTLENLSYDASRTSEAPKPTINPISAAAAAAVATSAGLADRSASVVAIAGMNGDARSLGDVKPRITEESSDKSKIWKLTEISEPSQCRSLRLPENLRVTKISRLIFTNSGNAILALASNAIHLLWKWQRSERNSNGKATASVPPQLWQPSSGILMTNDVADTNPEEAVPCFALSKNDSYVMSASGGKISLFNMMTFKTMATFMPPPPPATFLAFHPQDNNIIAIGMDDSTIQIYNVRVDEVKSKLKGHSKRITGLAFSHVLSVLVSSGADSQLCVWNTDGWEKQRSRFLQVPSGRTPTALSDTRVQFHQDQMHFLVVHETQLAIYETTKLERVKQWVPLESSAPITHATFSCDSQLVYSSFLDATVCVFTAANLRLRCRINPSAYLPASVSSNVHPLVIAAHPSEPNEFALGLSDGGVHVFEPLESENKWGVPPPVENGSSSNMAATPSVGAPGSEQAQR

| Molecule | interaction with GhTPL (GhTPL) | interaction with GhHDA6 (GhHDA6) | IC50 [1] [nM] | apoptosis rate of cancer cells (MCF7) (MCF7 breast cancer cells) | fluorescence with GhMYC2 after applying luciferase substrate (GhMYC2) |
| --- | --- | --- | --- | --- | --- |
| GhJAZ1 after deletion of NT domain: GhJAZ1 mutant with NT domain deleted, protein sequence SEQ ID No. 83 (protein) MSSCSESTAMKPARSPEANGTPVVPPPTMNLFPLNDKSDDVCGRNGGNPKNLTSMDLFPQQAGLASKDDSPNKLEPQTAPMTIFYGGQVIVFNDFPANKAKEIMLLASNSSSQSNNSFNPIPFTSSIARSPIESSIGVPPTSKPVHPAQRAVPGDLPIARRASLHRFLEKRKDRITAKAPYQINNSAAAPSLSGDNKSWLGLAAQSP | significantly weakened | significantly weakened |  |  |  |
| GhJAZ1: cotton JAZ1 protein, gene number Gh_A05G0260, sequence SEQ ID No. 4; prokaryotically expressed with His tag, about 30 KD (protein, His tag, prokaryotically expressed with His tag, about 30 KD) MSSCSESTAMKPARSPEKPSFAQTCNLLSQYLKEKGSFGDLSLGMTCNVEANGTPVVPPPTMNLFPLNDKSDDVCGRNGGNPKNLTSMDLFPQQAGLASKDDSPNKLEPQTAPMTIFYGGQVIVFNDFPANKAKEIMLLASNSSSQSNNSFNPIPFTSSIARSPIESSIGVPPTSKPVHPAQRAVPGDLPIARRASLHRFLEKRKDRITAKAPYQINNSAAAPSLSGDNKSWLGLAAQSP | interacted | interacted | 784 | increased | stronger fluorescence |
